Reference: US20220363736A1 (ICAHN SCHOOL OF MEDICINE AT MOUNT SINAI, published 2022)
Where two headings read alike, the source gives them in different places.

Assays:
[1] = molecular target: recombinant neuraminidase (rNA) from B/Malaysia/2506/04 (influenza B virus B/Malaysia/2506/04)
[2] = molecular target: recombinant neuraminidase (rNA) from B/Malaysia/2506/04 (influenza B virus B/Malaysia/2506/04); remark: listed apart in the source
[3] = molecular target: neuraminidase of wild type B/Malaysia/2506/04 virus (influenza B virus B/Malaysia/2506/04)
[4] = molecular target: neuraminidase of the ancestral B/Lee/40 strain (influenza B virus B/Lee/40, UniProt P03474 1-466); test: ELISA on purified whole virus
[5] = molecular target: neuraminidase of wild type B/Malaysia/2506/04 virus (influenza B virus B/Malaysia/2506/04); remark: listed apart in the source
[6] = molecular target: recombinant neuraminidase (rNA) from B/Florida/04/2006 (influenza B virus B/Florida/04/06)
[7] = molecular target: recombinant neuraminidase (rNA) from B/Florida/04/2006 (influenza B virus B/Florida/04/06); remark: listed apart in the source
[8] = molecular target: neuraminidase of wild type B/Malaysia/2506/04 virus (influenza B virus B/Malaysia/2506/04); remark: listed apart in the source

Chain of neuraminidase of the ancestral B/Lee/40 strain (P03474 whole entry): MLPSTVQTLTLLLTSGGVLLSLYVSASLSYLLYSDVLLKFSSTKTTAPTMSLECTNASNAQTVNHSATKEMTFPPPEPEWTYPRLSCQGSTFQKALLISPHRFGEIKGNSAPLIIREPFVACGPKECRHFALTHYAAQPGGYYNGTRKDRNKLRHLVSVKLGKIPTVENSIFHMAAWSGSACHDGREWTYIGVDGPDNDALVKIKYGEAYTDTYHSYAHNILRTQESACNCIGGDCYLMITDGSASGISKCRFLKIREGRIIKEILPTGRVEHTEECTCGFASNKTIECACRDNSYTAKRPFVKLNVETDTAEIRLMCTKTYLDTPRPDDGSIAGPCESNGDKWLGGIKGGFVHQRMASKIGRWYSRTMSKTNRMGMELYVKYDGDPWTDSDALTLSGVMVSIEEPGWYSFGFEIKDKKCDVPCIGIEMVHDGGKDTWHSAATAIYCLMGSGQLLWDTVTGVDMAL

B1: recombinantly expressed 4F11 IgG2b (antibody, V domains shown)
VH: DVKLVESGGDLVKPGGSLKLSCAASGFTFSAYSMSWVRQTPERRLEWVATINTGGSFTYYPDSVKGRFTISRDNAKNTLYLQMSSLKSEDTAMYFCTRVSDYGNSAYFPYWGQGTLVIVFA
VL: QVVLTQSPALISASPGEKVTMTCSASSNVNYMSWYQQRPRSSPKPWIYLTSKLASGVPPRFSGSGSGTSYSLTISSMEAEDVATYYCQQWSSDPQTFGGGTKVEIK
Kd [1]: 0.00298 nM | EC50 (read off the curve) [2]: 0.06 µg/mL | IC50 (read off the curve) [3]: 0.2 µg/mL

B2: recombinantly expressed 4F11 polymeric IgA (antibody, V domains shown)
VH: B1 VH
VL: B1 VL
Kd [1]: 0.00242 nM

B3: monoclonal antibody 4F11 (hybridoma-produced, murine IgG2b) (antibody, V domains shown)
VH: B1 VH
VL: B1 VL
EC50 (read off the curve) [2]: 0.05 µg/mL | binding result [4]: binds | IC50 (read off the curve) [3]: 0.2 µg/mL

B4: recombinantly expressed 4F11 IgG2a (antibody, V domains shown)
VH: B1 VH
VL: B1 VL
Kd [1]: 0.00336 nM

B5: recombinantly expressed 4F11 monomeric IgA (antibody, V domains shown)
VH: B1 VH
VL: B1 VL
Kd [1]: 0.00472 nM

B6: recombinantly expressed 4F11 IgG1 (antibody, V domains shown)
VH: B1 VH
VL: B1 VL
Kd [1]: 0.00891 nM

B7: recombinantly expressed 4F11 IgM (antibody, V domains shown)
VH: B1 VH
VL: B1 VL
Kd [1]: 0.00511 nM

B8: monoclonal antibody 1F4 (hybridoma-produced, murine IgG2a) (antibody, V domains shown)
VH: QVHLQQSGSELRSPGSSVKLSCKDFDSEVFPIVYMRWIRQKPGHGFEWIGDILPSFGRTIYGEKFEDKATLDADTVSNTAYLELNSLTSEDSAIYYCARGDHGNWLAYWGQGTLVTVSA
VL: DIVMTQSHKFMSTSVGDRVTITCKASQDVSTNVAWYQQKPGQSPKLLIYWASTRHTGVPNRFTGIISGTDYTLTISSVQAEDRALYYCQQHYSAPWTFGGGTKLEIK
IC50 (read off the curve) [5]: 4 µg/mL | binding result [4]: binds | EC50 (read off the curve) [6]: 0.05 µg/mL

B9: monoclonal antibody 1F2 (hybridoma-produced, murine IgG2a) (antibody, V domains shown)
VH: QVHLQQSGPEVARPGASVKLSCKASGYTFTDYYLNWVKQRPRQGLEWIGQIHPGSTNTYYNEKFKGKATLTADKSSSTAYMQLSSLTFEDSAVYFCAISLGDGYYVYAMVCWGQGTAVTVSS
VL: DIVMTQSQKFMSTSVGDRVSVTCKASQNVVTNVVWYQQKPGQSPKPLIYSASYRYSGVPDRFTGSGSGTDFTLTISNVQSEDLAEYCCQQYHSYPFTFGSGTKLEVK
IC50 (read off the curve) [5]: 2 µg/mL | EC50 (read off the curve) [7]: 0.03 µg/mL | binding result [4]: binds | IC50 (read off the curve) [8]: 0.09 µg/mL

B10: recombinantly expressed 1F2 IgG1 (antibody, V domains shown)
VH: B9 VH
VL: B9 VL
Kd [1]: 1.05 nM | EC50 (read off the curve) [7]: 0.05 µg/mL

B11: recombinantly expressed 1F2 IgM (antibody, V domains shown)
VH: B9 VH
VL: B9 VL
Kd [1]: 0.65 nM

B12: recombinantly expressed 1F2 IgG2a (antibody, V domains shown)
VH: B9 VH
VL: B9 VL
Kd [1]: 0.68 nM | EC50 (read off the curve) [7]: 0.03 µg/mL | IC50 (read off the curve) [8]: 0.1 µg/mL

B13: recombinantly expressed 1F2 polymeric IgA (antibody, V domains shown)
VH: B9 VH
VL: B9 VL
Kd [1]: 0.28 nM

B14: recombinantly expressed 1F2 monomeric IgA (antibody, V domains shown)
VH: B9 VH
VL: B9 VL
Kd [1]: 0.958 nM

B15: recombinantly expressed 1F2 IgG2b (antibody, V domains shown)
VH: B9 VH
VL: B9 VL
Kd [1]: 1.16 nM | EC50 (read off the curve) [7]: 0.03 µg/mL | IC50 (read off the curve) [8]: 0.3 µg/mL

B16: 1F2 Fab (Fab, V domains shown)
VH: B9 VH
VL: B9 VL
IC50 (read off the curve) [5]: 3 µg/mL

B17: monoclonal antibody 3G1 (hybridoma-produced, murine IgG2a) (antibody, V domains shown)
VH: QVQLQQSGAELMKPGASVKISCKATGYKFTSYWIGWVKQRPGHGLEWCGEIFPGSGSINYNEKFKGKATFTADTSSNTAYLQLTSLTSEDSAVYYCARGEDYYGSSYGAMDYWGQGTSLTVSS
VL: DVQITQSPSYLAASPGETITINCRASKSISKYVAWYQEKPGRTNKVLIYSGSILSFGNPSRFSGSGSGTDFTLTISSLEPEDFAMYYCQQHNEYPWTFGGGTKLEIK
IC50 (read off the curve) [5]: 3 µg/mL | binding result [4]: binds

B18: monoclonal antibody 4B2 (hybridoma-produced, murine IgG2a) (antibody, V domains shown)
VH: QIQLVQSGPELKKPGETVKISCKASGFTFTDYPMHWVKQAPGKSLKWMGWINTETEEPTYSDDFKGRSPLSLETSASTTYLQINNLKNEDTSTYFCVRSGYYYGSTYAWFGYWGQGTLVTVSA
VL: DVVMTQIPLSLPVSLGDQASISCRSSQSLIHTNGDTFLHWYLQKPGQSPKLLIYKVSNRFSGVPDRFTGGGSGTDFTLKISRVEAEDLGIYFCSQSALFPYTFGGGTNLEIK
binding result [4]: binds
